Measurements taken from US20230212319A1, “NOVEL ANTIGEN BINDING DOMAINS AND SYNTHETIC ANTIGEN RECEPTORS INCORPORATING THE SAME” (University of Southern California, priority 2020, published 2023).

B1: 22042 (protein)
chain: MALPVTALLLPLALLLHAARPQLQLQESGPGLVKPSETLSLTCTVSGDSISSGDYYWGWIRQPPGKGLEWIGHIYYSGVTYYNPSLKSRVTISVDTSRNQFSLKLSSVTAADTAVYYCTREDSSNWRSRGQGTLVTVSSLEGSADCGFTSESYQQGVLSATILYEILLGKATLYAVLVSALVLMAMVKRKDSRGRAKRSGSGATNFSLLKQAGDVEENPGPTSMDWIWRILFLVGAATGAHSFEVQLVESGGGVVQPGRSLRLSCAASGFSFSGYGMHWVRQAPGKGLEWVAYISYDGSNKYYADSVKGRFTISRDNSKNTLYLQMNSLRAEDTAVYYCAKDPAWGLRLGESSSYDFDIWGQGTMVTVSSTRDKTHTCPPCPAIPEDTFFPSPESSCDVKLVEKSFETDTNLNFQNLSVIGFRILLLKVAGFNLLMTLRLWSSRAKRSGSGVKQTLNFDLLKLAGDVESNPGPSRGHMTEYKPTVRLATRDDVPRAVRTLAAAFADYPATRHTVDPDRHIERVTELQELFLTRVGLDIGKVWVADDGAAVAVWTTPESVEAGAVFAEIGPRMAELSGSRLAAQQQMEGLLAPHRPKEPAWFLATVGVSPDHQGKGLGSAVVLPGVEAAERAGVPAFLETSAPRNLPFYERLGFTVTADVEVPEGPRTWCMTRKPGA
B2: 22053 (protein)
chain: MALPVTALLLPLALLLHAARPQLQLQESGPGLVKPSETLSLTCTVSGDSISSGDYYWGWIRQPPGKGLEWIGHIYYSGVTYYNPSLKSRVTISVDTSRNQFSLKLSSVTAADTAVYYCTREDSSNWRSRGQGTLVTVSSLEDKTHTCPPCPAPIKTDVITMDPKDNCSKDANDTLLLQLTNTSAYYMYLLLLLKSVVYFAIITCCLLRRTAFCCNGEKSRAKRSGSGATNFSLLKQAGDVEENPGPTSMDWIWRILFLVGAATGAHSFEVQLVESGGGVVQPGRSLRLSCAASGFSFSGYGMHWVRQAPGKGLEWVAYISYDGSNKYYADSVKGRFTISRDNSKNTLYLQMNSLRAEDTAVYYCAKDPAWGLRLGESSSYDFDIWGQGTMVTVSSTRDKTHTCPPCPAIPEDTFFPSPESSCDVKLVEKSFETDTNLNFQNLSVIGFRILLLKVAGFNLLMTLRLWSSRAKRSGSGVKQTLNFDLLKLAGDVESNPGPSRGHMTEYKPTVRLATRDDVPRAVRTLAAAFADYPATRHTVDPDRHIERVTELQELFLTRVGLDIGKVWVADDGAAVAVWTTPESVEAGAVFAEIGPRMAELSGSRLAAQQQMEGLLAPHRPKEPAWFLATVGVSPDHQGKGLGSAVVLPGVEAAERAGVPAFLETSAPRNLPFYERLGFTVTADVEVPEGPRTWCMTRKPGA
B3: 22294 (protein)
chain: MALPVTALLLPLALLLHAARPQLQLQESGPGLVKPSETLSLTCTVSGDSISSGDYYWGWIRQPPGKGLEWIGHIYYSGVTYYNPSLKSRVTISVDTSRNQFSLKLSSVTAADTAVYYCTREDSSNWRSRGQGTLVTVSSLEGSIPEDTFFPSPESSCDVKLVEKSFETDTNLNFQNLSVIGFRILLLKVAGFNLLMTLRLWSSRAKRSGSGVKQTLNFDLLKLAGDVESNPGPTSATMDWIWRILFLVGAATGAHSEFMDPDLEIRAAFLRQRNTALRTEVAELEQEVQRLENEVSQYETRYGPLGGGKTRGSGRADCGFTSESYQQGVLSATILYEILLGKATLYAVLVSALVLMAMVKRKDSRGRAKRSGSGATNFSLLKQAGDVEENPGPSRGHMTEYKPTVRLATRDDVPRAVRTLAAAFADYPATRHTVDPDRHIERVTELQELFLTRVGLDIGKVWVADDGAAVAVWTTPESVEAGAVFAEIGPRMAELSGSRLAAQQQMEGLLAPHRPKEPAWFLATVGVSPDHQGKGLGSAVVLPGVEAAERAGVPAFLETSAPRNLPFYERLGFTVTADVEVPEGPRTWCMTRKPGA
B4: 22045 (protein)
chain: MALPVTALLLPLALLLHAARPQLQLQESGPGLVKPSETLSLTCTVSGDSISSGDYYWGWIRQPPGKGLEWIGHIYYSGVTYYNPSLKSRVTISVDTSRNQFSLKLSSVTAADTAVYYCTREDSSNWRSRGQGTLVTVSSLEGSPIKTDVITMDPKDNCSKDANDTLLLQLTNTSAYYMYLLLLLKSVVYFAIITCCLLRRTAFCCNGEKSRAKRSGSGATNFSLLKQAGDVEENPGPTSMDWIWRILFLVGAATGAHSFEVQLVESGGGVVQPGRSLRLSCAASGFSFSGYGMHWVRQAPGKGLEWVAYISYDGSNKYYADSVKGRFTISRDNSKNTLYLQMNSLRAEDTAVYYCAKDPAWGLRLGESSSYDFDIWGQGTMVTVSSTRDKTHTCPPCPAIPEDTFFPSPESSCDVKLVEKSFETDTNLNFQNLSVIGFRILLLKVAGFNLLMTLRLWSSRAKRSGSGVKQTLNFDLLKLAGDVESNPGPSRGHMTEYKPTVRLATRDDVPRAVRTLAAAFADYPATRHTVDPDRHIERVTELQELFLTRVGLDIGKVWVADDGAAVAVWTTPESVEAGAVFAEIGPRMAELSGSRLAAQQQMEGLLAPHRPKEPAWFLATVGVSPDHQGKGLGSAVVLPGVEAAERAGVPAFLETSAPRNLPFYERLGFTVTADVEVPEGPRTWCMTRKPGA
B5: 22044 (protein)
chain: MALPVTALLLPLALLLHAARPQLQLQESGPGLVKPSETLSLTCTVSGDSISSGDYYWGWIRQPPGKGLEWIGHIYYSGVTYYNPSLKSRVTISVDTSRNQFSLKLSSVTAADTAVYYCTREDSSNWRSRGQGTLVTVSSLEGSMDPKDNCSKDANDTLLLQLTNTSAYYMYLLLLLKSVVYFAIITCCLLRRTAFCCNGEKSRAKRSGSGATNFSLLKQAGDVEENPGPTSMDWIWRILFLVGAATGAHSFEVQLVESGGGVVQPGRSLRLSCAASGFSFSGYGMHWVRQAPGKGLEWVAYISYDGSNKYYADSVKGRFTISRDNSKNTLYLQMNSLRAEDTAVYYCAKDPAWGLRLGESSSYDFDIWGQGTMVTVSSTRDKTHTCPPCPAIPEDTFFPSPESSCDVKLVEKSFETDTNLNFQNLSVIGFRILLLKVAGFNLLMTLRLWSSRAKRSGSGVKQTLNFDLLKLAGDVESNPGPSRGHMTEYKPTVRLATRDDVPRAVRTLAAAFADYPATRHTVDPDRHIERVTELQELFLTRVGLDIGKVWVADDGAAVAVWTTPESVEAGAVFAEIGPRMAELSGSRLAAQQQMEGLLAPHRPKEPAWFLATVGVSPDHQGKGLGSAVVLPGVEAAERAGVPAFLETSAPRNLPFYERLGFTVTADVEVPEGPRTWCMTRKPGA

Tested on: LNCaP cells
Experiment: JNG assay, co-culture with LNCaP cells
Assay type: cell-based
Details: for NFAT-GFP ASSAY: LNCaP: co-culture with LNCaP
Procedure: Cellular supernatant is collected and assayed for the induction of cytokines (e.g., IL2).
JNG (Jurkat cells expressing EGFP under an NFAT promoter) were infected with lentiviral vectors encoding different single chain and multi-chain SARs by spinfection in the presence of 8 µg/ml of Polybrene® (Sigma, Catalog no. H9268). The Jurkat-NFAT-GFP cells are engineered in such a way that the IL-2 promoter, which carries NFAT binding sites, is cloned upstream of the GFP gene. These cells have been used to study signaling via TCR and CAR. The different SARs were stably expressed in Jurkat NFAT-GFP cells by lentiviral mediated gene transfer, followed by selection with puromycin or blasticidin. No drug selection was used in case the construct lacked an antibiotic resistance gene. The SAR-expressing Jurkat-NFAT-GFP cells were cocultured with the target cells at E:T ratio of approximately 1:2 for approximately 4 hours to 18 hours. When the interaction between SIRs and their target antigen results in activation of the NFAT pathway, GFP expression is induced. […] GFP expression was monitored by FACS analysis. The Jurkat-NFAT-GFP (parental) cells were used as control. The structure of different constructs can be determined based on their names. For example, the construct CD8SP-CD19-hu-mROO5-1-vL-[hTCRa-C SDVP]-F-F2A-Spe-IgHSP-Apa-CD20-vHH-2HCD25-G4S-CDl9-hu-mROO5-1-vH-Mlu-[hTCRb-KACIAH]-F-P2A-PAC has the following modules from 5′ to 3′ direction: a CD8 signal peptide (CD8SP), the CD19 targeting hu-mROO5-1 vL fragment (CD19-hu-mROO5-1), Xho1 cloning site, human TCRa constant chain containing CSDVP mutations (hTCRa-CSDVP), Furine cleavage site (F), F2A ribosomal skip sequence (F2A), SpeI site, human IgH signal peptide (IgHSP), Apa I restriction enzyme site, camelid CD20-2HCD25-VHH module targeting CD20, BamHI restriction enzyme site, Glycinex4-serine linker (G4S), BstI restriction enzyme site, CD19-hu-mROO5-1-vH fragment targeting CD19, Mlu I restriction enzyme site, human TCRb constant chain containing KACIAH mutations ([hTCRb-KACIAH]), Furine cleavage site (F), P2A ribosomal skip sequence and Puromycin resistance gene (PAC). The sequence of the other constructs in the table can be similarly determined from their names and by referring to the different Tables of this disclosure that provide the names and SEQ ID NO of the different modules. Alternatively, the composition and modular architecture of the different SAR constructs can be determined from their sequences by bioinformatics tools, including using nucleic acid and amino acids homology searches. A SAR is considered positive in the assay in case the SAR expressing Jurkat-NFAT-GFP cells show greater % GFP positive cells when cultured with the target cell line as compared to parental Jurkat-NFAT-GFP cells. The signs +/-, +, 2+ etc. after the name of the cell lines indicate the relative degree of positivity on the Jurkat-NFAT-GFP assay as measured by the % GFP positive cells after culture of the SAR expressing Jurkat-NFAT-GFP cells with that cell line above the % GFP cells observed in parental Jurkat NFAT-GFP cells serving as controls. In general, the number +/-, +, 2+, 3+, 4+, 5+ refer to approximately 5%, 10%, 20%, 30%, 40% and 50% GFP positive cells. The % of GFP induction in the above assay is dependent not only the relative strength of the SAR but also, among other factors, on the relative level of expression of the SAR in the JNG cells and the relative level of expression of the target antigen in the target cell line. To control for the difference in gene transduction efficiency of the different SAR constructs, the experiment was conducted with JNG cells transduced with SAR constructs co-expressing a drug resistance gene (e.g., puromycin or PAC) followed by drug selection to generate a stable population of SAR-expressing cells. […]

Row | Molecule | NFAT-GFP ASSAY: LNCaP | NFAT-GFP ASSAY: LNCaP with PSMA-USC76-chVH-EZIP (LNCaP in presence of SAR adaptor PSMA-USC76-chVH-EZIP)
1 | B1 | +/- (refer to approximately 5%, 10%, 20%, 30%, 40% and 50% GFP positive cells) | 
2 | B2 | + (refer to approximately 5%, 10%, 20%, 30%, 40% and 50% GFP positive cells) | 
3 | B3 |  | +1
4 | B4 | +/- (refer to approximately 5%, 10%, 20%, 30%, 40% and 50% GFP positive cells) | 
5 | B5 | +/- (refer to approximately 5%, 10%, 20%, 30%, 40% and 50% GFP positive cells) | 
